Test results taken from patent publication US8133680.

Experiments:
[1] = molecular target: biotinylated bovine serum albumin (bovine) (UniProt P02769); test: ellipsometry after affinity microcontact printing; second use of the biotinylated BSA stamp; control
[2] = molecular target: biotinylated bovine serum albumin (bovine) (UniProt P02769); test: ellipsometry after affinity microcontact printing; third use of the biotinylated BSA stamp; control
[3] = molecular target: biotinylated bovine serum albumin (bovine) (UniProt P02769); test: ellipsometry after affinity microcontact printing from biotinylated BSA stamp (1 mg/ml, 5 h); control

Sequence of UniProt P02769 (P02769 25-607 limits assumed): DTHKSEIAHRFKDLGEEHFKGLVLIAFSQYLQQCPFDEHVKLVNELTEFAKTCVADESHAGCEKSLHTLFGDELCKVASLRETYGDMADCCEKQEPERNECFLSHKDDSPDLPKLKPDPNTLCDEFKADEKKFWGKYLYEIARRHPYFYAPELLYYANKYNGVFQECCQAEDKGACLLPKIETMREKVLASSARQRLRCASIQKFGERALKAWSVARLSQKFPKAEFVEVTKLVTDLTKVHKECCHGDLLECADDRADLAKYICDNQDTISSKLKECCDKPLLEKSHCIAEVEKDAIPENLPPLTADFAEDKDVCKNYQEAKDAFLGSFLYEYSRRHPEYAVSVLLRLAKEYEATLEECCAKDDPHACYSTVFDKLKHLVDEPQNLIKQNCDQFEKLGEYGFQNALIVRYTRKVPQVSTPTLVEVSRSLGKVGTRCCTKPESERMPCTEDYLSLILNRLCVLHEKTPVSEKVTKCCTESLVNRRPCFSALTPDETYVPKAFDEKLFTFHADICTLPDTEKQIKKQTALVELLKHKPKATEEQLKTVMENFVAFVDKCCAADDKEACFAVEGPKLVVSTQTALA

Q: How did the change in ellipsometric thickness [1] turn out when anti-goat IgG (antibody) was run?
A: Its change in ellipsometric thickness is 1.5 nm.

Q: What about the change in ellipsometric thickness [2] of the same substance?
A: The change in ellipsometric thickness was 1.2 nm.

Q: And the change in ellipsometric thickness [3]?
A: Its change in ellipsometric thickness is 2.3 nm.
